# Substrate: C[C@@H](O)[C@H](N)C(=O)O
# Test: HPLC nucleoside analysis of t6A formed on tRNA-Ile in reconstituted assay
# Assay type: biochemical, Saccharomyces cerevisiae
# Conditions: coupled two-enzyme system: Sua5 plus yeast Qri7 (30-407), 2 uM Sua5/Qri7, 20 uM tRNA-Ile, 2 mM ATP, 1 mM NaHCO3, 5 mM MnCl2, 200 mM NaCl, 50 mM Tris-HCl pH 8.0, ambient temperature, 60 min
protein,measurement,value
"Sua5 (Saccharomyces cerevisiae S288C) (protein, full length; N-terminal hexa-histidine or GST tag; expressed in E. coli BL21 (DE3) CodonPlus) MYLGRHFLAMTSKALFDTKILKVNPLSIIFSPDAHIDGSLPTITDPETEAALVEAARIIRDTDETVAFPTETVYGLGGSALNDNSVLSIYRAKNRPSDNPLITHVSSIDQLNRKVFNQPHLSGTSLFDNIPSIYRPLISSLWPGPLTILLPVPSSEHSALSKLTTADQPTFAVRIPANPVARALIALSDTPIAAPSANASTRPSPTLASHVYHDLKDKIPIILDGGACKVGVESTVVDGLCNPPTLLRPGGFTYEEIVKLGGEAWSLCKVENKKTVEKGEKVRTPGMKYRHYSPSAKVVLLVPHCEGDGILKGVDRMERLKRLIETELKANSNIKKIAILTSLKLRDSDLQSKIFNEPDFSSKTFIIERLGQSGEEIQTNLFAALRKVDENDKVDLIFVEGINEEGEGLAVMNRLRKAAANNCIQF",Km,0.11 ± 0.014 µM

# From paper PMC3695523, “Reconstitution and characterization of eukaryotic N6-threonylcarbamoylation of tRNA using a minimal enzyme system” (Nucleic Acids Research, 2013)
